From US6416738B1, “Pretargeting methods and compounds” (NeoRx Corporation, priority 1973, dated 2002) come the findings set out here.

The data set is described as follows: Human clinical trials of NR-LU-10. It counts as in vivo. The settings on record: over 565 patients. Here is the method:
The hybridoma secreting NR-LU-10 was developed by fusing mouse splenocytes immunized with intact cells of a human small cell lung carcinoma with P3×63/Ag8UI murine myeloma cells. After establishing a seed lot, the hybridoma was grown via in vitro cell culture methods, purified and verified for purity and sterility.

B1: NR-LU-10: 150 kilodalton IgG2b monoclonal antibody recognizing an approximately 40 kilodalton glycoprotein antigen expressed on most carcinomas (antibody, V domains shown)
VH: EVQLQQSGAELVKPGASVRLSCTASGFNIKDTYMHWVIERPEQGLEWIGRIDPANGNTKCDPKFQGKATITADTSSNTAYLQLSSLTSEDTAVYYCSREVLTGTWSLDYWGQGTSVTVSS
VL: DIQMIQSPSSMFASLGDRVSLSCRASQGIRGNLDWYQQKPGGTIKLLIYSTSNLNSGVPSRFSGSGSGSDYSLTISSLDSEDFADYYCLQRNAYPYTFGGGTKLEIK
Regarding B1, the “safety in human clinical trials” value is listed as “safely administered”.
